Laboratory results taken from patent publication US20240002544A1 (NOVIMMUNE, published 2024).
Numbering of substitutions follows the chain as printed.

B1: 1a28/AC84/N (bispecific antibody, human IgG1, kappa, L234A L235A)
heavy 1: QSVLTQPPSVSAAPGQKVTISCSGSSSNIGIGLVSWYQQLPGTAPKLLIYNVNTRPSGIPDRFSGSKSGTSATLGITGLQTGDEADYYCGTWDFSYRVDFGGGTKLTVLSSASTKGPSVFPLAPSSKSTSGGTAALGCLVKDYFPEPVTVSWNSGALTSGVHTFPAVLQSSGLYSLSSVVTVPSSSLGTQTYICNVNHKPSNTKVDKKVEPKSCDKTHTCPPCPAPEAAGGPSVFLFPPKPKDTLMISRTPEVTCVVVDVSHEDPEVKFNWYVDGVEVHNAKTKPREEQYNSTYRVVSVLTVLHQDWLNGKEYKCKVSNKALAAPIEKTISKAKGQPREPQVYTLPPCRDELTKNQVSLWCLVKGFYPSDIAVEWQSNGQTENNYKTTPPVLDSDGSFFLYSKLTVDKSRWQQGNVFSCSVMHEALHNHYTQKSLSLSPG
heavy 2: QVQLQESGPGLVKPSETLSLTCTVSGGSISSYYWSWIRQPPGKGLEWIGYIYYSGITHYNPSLKSRVTISVDTSKIQFSLKLSSVTAADTAVYYCARWGVRRDYYYYGMDVWGQGTTVTVSSASTKGPSVFPLAPSSKSTSGGTAALGCLVEDYFPEPVTVTWNSGALSSGVHTFPAVLQSSGLYSLSSVVTVPSSSLGTQTYICNVNHKPSNTKVDEKVEPKSCDKTHTCPPCPAPEAAGGPSVFLFPPKPKDTLMISRTPEVTCVVVDVSHEDPEVKFNWYVDGVEVHNAKTKPREEQYNSTYRVVSVLTVLHQDWLNGKEYKCKVSNKALAAPIEKTISKAKGQPREPQVCTLPPSRDELTKNQVSLSCAVKGFYPSDIAVEWESNGQPENNYKTTPPVLDSDGSFFLVSKLTVDKSRWQQGNVFSCSVMHEALHNHYTQKSLSLSPG
light 1: not shown
light 2: not shown
notes: LALAPA-mutated huIgG1, 1+1 crossMAb/knobs-into-hole; also called benchmark CEA×CD28 bsAb
B2: AI3AC84/N (bispecific antibody, human IgG1, kappa, lambda, L234A L235A)
heavy: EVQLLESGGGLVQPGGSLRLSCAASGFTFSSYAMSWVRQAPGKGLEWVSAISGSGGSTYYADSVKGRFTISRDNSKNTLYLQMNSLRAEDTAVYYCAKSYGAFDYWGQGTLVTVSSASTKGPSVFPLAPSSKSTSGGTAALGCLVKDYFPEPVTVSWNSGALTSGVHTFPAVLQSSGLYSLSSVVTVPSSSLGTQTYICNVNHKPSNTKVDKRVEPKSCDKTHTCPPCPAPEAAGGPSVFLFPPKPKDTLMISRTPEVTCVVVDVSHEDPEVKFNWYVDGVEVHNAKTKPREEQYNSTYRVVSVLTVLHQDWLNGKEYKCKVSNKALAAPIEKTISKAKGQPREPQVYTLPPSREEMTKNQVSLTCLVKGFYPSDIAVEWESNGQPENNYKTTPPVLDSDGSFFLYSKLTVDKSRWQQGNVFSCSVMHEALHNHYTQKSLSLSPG
light 1: not shown
light 2: QSVLTQPPSVSAAPGQKVTISCSGSSSNIGIGLVSWYQQLPGTAPKLLIYNVNTRPSGIPDRFSGSKSGTSATLGITGLQTGDEADYYCGTWDFSYRVDFGGGTKLTVLGQPKAAPSVTLFPPSSEELQANKATLVCLISDFYPGAVTVAWKADSSPVKAGVETTTPSKQSNNKYAASSYLSLTPEQWKSHRSYSCQVTHEGSTVEKTVAPTECS
notes: κλ-body, IgG1 LALAPA; also called AI3 (AI_1H5) kappa / AC84 (AC1g6_1F1) lambda
B3: AI5AC84/N (bispecific antibody, human IgG1, kappa, lambda, L234A L235A)
heavy: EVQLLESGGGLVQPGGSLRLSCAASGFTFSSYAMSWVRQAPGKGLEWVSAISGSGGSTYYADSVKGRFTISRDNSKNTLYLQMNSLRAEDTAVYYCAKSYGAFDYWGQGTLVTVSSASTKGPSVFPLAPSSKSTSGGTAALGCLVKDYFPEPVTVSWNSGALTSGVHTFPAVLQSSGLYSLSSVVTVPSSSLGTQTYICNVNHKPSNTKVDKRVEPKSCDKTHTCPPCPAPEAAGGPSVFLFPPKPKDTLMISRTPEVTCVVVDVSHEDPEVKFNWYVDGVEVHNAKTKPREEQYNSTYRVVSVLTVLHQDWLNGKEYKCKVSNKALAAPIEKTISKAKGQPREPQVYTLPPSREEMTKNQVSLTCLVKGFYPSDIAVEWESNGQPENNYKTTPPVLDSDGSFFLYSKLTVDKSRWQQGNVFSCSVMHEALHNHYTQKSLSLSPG
light 1: DIVMTQTPLSLSVTPGQPASISCKSSGDLLTFEGKTYLYWYLQKPGQPPQLLIYEVSNRFSGVPDRFSGSGSGTDFTLKISRVEAEDVGVYYCMQAHSTRFAFTFGQGTKVEIKRTVAAPSVFIFPPSDEQLKSGTASVVCLLNNFYPREAKVQWKVDNALQSGNSQESVTEQDSKDSTYSLSSTLTLSKADYEKHKVYACEVTHQGLSSPVTKSFNRGEC
light 2: B2 light 2
notes: κλ-body, IgG1 LALAPA; also called AI5 (AI_1A9) kappa / AC84 (AC1g6_1F1) lambda
B4: AI10AC84/N (bispecific antibody, human IgG1, kappa, lambda, L234A L235A)
heavy: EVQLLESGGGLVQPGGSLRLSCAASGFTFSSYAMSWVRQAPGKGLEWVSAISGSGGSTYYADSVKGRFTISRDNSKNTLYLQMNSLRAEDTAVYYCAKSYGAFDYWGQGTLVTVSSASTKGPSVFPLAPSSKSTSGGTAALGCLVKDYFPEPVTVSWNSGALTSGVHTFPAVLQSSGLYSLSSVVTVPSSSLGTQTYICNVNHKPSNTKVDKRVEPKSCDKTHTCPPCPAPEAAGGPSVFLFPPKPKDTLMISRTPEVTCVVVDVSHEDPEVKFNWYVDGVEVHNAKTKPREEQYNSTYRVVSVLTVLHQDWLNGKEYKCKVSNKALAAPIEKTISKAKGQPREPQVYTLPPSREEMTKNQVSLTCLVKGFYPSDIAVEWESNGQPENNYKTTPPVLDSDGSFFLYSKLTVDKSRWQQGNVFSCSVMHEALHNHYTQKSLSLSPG
light 1: B3 light 1 with T31E, E33A, S98G, T99S, R100K, F101I, A102G
light 2: B2 light 2
notes: κλ-body, IgG1 LALAPA; also called AI10 (AI_1B6) kappa / AC84 (AC1g6_1F1) lambda
B5: AI3O35/N (bispecific antibody, human IgG1, kappa, lambda, L234A L235A)
heavy: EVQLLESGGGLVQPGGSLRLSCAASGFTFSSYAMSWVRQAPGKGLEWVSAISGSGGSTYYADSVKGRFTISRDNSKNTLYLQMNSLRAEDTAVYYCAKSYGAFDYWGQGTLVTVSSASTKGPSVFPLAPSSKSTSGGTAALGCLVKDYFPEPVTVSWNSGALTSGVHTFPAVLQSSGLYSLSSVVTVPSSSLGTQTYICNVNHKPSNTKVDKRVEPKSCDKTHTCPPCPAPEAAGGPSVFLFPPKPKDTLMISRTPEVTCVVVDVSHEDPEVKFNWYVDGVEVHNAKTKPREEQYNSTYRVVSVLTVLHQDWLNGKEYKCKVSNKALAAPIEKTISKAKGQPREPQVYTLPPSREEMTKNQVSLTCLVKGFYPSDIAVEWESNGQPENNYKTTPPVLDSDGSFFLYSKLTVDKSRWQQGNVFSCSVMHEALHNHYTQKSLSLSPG
light 1: not shown
light 2: QPVLTQPVSLSASPGASVSLTCTLRSDIRVRDYRIFWYQQKPGSPPQYLLRYKTDSDKQQGSGVPSRFSGSKDASANAGILLISGLQSEDEADYYCMIWHRTTGTSLVFGGGTKLTVLGQPKAAPSVTLFPPSSEELQANKATLVCLISDFYPGAVTVAWKADSSPVKAGVETTTPSKQSNNKYAASSYLSLTPEQWKSHRSYSCQVTHEGSTVEKTVAPTECS
notes: κλ-body, IgG1 LALAPA; also called AI3 (AI_1H5) kappa / O35 (Ob8_A10) lambda
B6: AI3O41/N (bispecific antibody, human IgG1, kappa, lambda, L234A L235A)
heavy: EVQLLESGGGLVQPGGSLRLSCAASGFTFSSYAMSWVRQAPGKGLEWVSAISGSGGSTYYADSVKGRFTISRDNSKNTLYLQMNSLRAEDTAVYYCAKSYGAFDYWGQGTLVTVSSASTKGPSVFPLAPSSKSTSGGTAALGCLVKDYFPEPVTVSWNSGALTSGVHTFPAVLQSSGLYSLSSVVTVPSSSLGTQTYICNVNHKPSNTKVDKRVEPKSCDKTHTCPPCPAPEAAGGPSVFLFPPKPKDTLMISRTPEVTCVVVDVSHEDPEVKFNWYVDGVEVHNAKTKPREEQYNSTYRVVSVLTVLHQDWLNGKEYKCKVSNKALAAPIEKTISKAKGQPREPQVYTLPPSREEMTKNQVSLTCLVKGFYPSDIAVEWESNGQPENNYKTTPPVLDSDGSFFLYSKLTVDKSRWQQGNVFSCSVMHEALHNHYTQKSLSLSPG
light 1: not shown
light 2: SYVLTQPPSVSVAPGKTARITCGGNKIGHRAVHWYQQKPGQAPVLVIYYTYERPSGIPERFSGSNSGNTATLTISRVEAGDEADYYCQVWDWYSEGGVVFGGGTKLTVLGQPKAAPSVTLFPPSSEELQANKATLVCLISDFYPGAVTVAWKADSSPVKAGVETTTPSKQSNNKYAASSYLSLTPEQWKSHRSYSCQVTHEGSTVEKTVAPTECS
notes: κλ-body, IgG1 LALAPA; also called AI3 (AI_1H5) kappa / O41 (Ob9_1A11) lambda
B7: AI5O30/N (bispecific antibody, human IgG1, kappa, lambda, L234A L235A)
heavy: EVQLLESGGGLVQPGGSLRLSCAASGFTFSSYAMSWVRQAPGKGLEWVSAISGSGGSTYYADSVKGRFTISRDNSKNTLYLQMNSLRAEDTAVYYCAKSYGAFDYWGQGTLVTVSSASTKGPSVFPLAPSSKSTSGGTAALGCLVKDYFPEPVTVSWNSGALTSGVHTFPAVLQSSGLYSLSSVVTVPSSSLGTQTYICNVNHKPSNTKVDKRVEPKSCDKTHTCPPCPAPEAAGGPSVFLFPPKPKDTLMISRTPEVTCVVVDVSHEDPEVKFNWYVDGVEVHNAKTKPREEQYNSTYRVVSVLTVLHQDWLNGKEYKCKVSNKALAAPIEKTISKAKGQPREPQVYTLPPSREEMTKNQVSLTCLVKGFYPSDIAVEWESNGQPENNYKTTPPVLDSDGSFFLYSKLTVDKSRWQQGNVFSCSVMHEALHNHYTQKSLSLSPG
light 1: B3 light 1
light 2: not shown
notes: κλ-body, huIgG1-LALAPA; also called AI5 (AI_1A9) kappa / O30 (O1b6_1D1) lambda
B8: AI5O35/N (bispecific antibody, human IgG1, kappa, lambda, L234A L235A)
heavy: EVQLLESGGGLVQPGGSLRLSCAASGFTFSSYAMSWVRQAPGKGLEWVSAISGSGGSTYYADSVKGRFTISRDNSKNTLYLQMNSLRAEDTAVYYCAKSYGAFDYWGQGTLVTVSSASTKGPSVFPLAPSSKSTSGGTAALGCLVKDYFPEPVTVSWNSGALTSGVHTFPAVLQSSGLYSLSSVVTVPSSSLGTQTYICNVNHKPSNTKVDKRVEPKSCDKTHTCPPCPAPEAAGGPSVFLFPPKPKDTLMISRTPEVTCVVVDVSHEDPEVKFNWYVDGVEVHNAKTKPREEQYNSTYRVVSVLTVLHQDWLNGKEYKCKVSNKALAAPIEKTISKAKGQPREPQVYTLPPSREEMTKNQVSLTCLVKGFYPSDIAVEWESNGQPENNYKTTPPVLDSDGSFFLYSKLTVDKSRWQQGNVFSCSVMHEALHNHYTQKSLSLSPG
light 1: B3 light 1
light 2: B5 light 2
notes: κλ-body, huIgG1-LALAPA; also called AI5 (AI_1A9) kappa / O35 (Ob8_A10) lambda
B9: AI5O41/N (bispecific antibody, human IgG1, kappa, lambda, L234A L235A)
heavy: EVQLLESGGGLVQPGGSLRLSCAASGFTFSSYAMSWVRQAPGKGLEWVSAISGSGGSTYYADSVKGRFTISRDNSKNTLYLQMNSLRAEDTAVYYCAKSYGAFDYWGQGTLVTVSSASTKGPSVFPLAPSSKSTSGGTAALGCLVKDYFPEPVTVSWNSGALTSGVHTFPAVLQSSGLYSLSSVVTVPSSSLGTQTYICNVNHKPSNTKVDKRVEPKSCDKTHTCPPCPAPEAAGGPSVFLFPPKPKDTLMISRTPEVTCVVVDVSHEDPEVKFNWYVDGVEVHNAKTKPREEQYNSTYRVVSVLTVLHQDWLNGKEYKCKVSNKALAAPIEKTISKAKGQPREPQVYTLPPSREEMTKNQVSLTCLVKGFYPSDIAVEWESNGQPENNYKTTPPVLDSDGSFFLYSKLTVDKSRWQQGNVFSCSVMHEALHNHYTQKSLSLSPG
light 1: B3 light 1
light 2: B6 light 2
notes: κλ-body, huIgG1-LALAPA; also called AI5 (AI_1A9) kappa / O41 (Ob9_1A11) lambda
B10: AI10O35/N (bispecific antibody, human IgG1, kappa, lambda, L234A L235A)
heavy: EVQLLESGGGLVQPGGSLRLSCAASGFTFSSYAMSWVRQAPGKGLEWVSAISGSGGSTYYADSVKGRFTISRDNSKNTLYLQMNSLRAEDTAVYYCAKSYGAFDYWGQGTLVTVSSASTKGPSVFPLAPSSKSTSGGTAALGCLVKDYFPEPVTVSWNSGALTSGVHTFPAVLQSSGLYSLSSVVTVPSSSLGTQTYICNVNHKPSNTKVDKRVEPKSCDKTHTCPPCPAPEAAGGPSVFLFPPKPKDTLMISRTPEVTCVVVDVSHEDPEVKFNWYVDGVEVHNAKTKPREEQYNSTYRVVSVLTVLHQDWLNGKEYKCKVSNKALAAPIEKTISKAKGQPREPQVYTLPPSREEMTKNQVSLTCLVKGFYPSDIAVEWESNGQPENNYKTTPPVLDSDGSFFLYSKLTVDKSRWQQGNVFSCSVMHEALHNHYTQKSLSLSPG
light 1: B3 light 1 with T31E, E33A, S98G, T99S, R100K, F101I, A102G
light 2: B5 light 2
notes: κλ-body, huIgG1-LALAPA; also called AI10 (AI_1B6) kappa / O35 (Ob8_A10) lambda
B11: AI10O30/N (bispecific antibody, human IgG1, kappa, lambda, L234A L235A)
heavy: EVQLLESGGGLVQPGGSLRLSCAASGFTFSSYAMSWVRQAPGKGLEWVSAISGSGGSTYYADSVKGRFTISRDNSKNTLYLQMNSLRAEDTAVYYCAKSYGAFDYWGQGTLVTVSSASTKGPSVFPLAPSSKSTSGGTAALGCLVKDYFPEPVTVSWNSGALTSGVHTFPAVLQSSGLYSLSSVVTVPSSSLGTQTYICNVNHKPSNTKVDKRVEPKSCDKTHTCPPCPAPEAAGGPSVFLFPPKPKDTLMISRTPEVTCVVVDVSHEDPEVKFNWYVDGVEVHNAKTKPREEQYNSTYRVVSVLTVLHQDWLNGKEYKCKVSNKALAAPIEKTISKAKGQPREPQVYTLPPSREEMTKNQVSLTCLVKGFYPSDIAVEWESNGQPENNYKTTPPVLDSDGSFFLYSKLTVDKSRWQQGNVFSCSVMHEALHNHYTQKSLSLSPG
light 1: B3 light 1 with T31E, E33A, S98G, T99S, R100K, F101I, A102G
light 2: not shown
notes: κλ-body, huIgG1-LALAPA; also called AI10 (AI_1B6) kappa / O30 (O1b6_1D1) lambda
B12: AI10O41/N (bispecific antibody, human IgG1, kappa, lambda, L234A L235A)
heavy: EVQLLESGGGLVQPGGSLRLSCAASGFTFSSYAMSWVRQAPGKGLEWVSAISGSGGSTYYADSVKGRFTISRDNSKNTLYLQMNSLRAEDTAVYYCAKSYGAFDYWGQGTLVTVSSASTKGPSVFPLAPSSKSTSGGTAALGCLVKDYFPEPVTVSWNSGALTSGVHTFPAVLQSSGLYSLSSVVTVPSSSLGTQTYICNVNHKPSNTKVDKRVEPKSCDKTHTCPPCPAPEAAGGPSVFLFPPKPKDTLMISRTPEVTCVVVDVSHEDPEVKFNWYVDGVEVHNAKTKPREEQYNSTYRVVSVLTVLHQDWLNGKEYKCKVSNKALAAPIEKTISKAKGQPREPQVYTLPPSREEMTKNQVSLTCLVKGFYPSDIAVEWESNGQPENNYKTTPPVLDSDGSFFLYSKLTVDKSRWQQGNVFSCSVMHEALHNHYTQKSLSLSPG
light 1: B3 light 1 with T31E, E33A, S98G, T99S, R100K, F101I, A102G
light 2: B6 light 2
notes: κλ-body, huIgG1-LALAPA; also called AI10 (AI_1B6) kappa / O41 (Ob9_1A11) lambda

target: T1, human CD28 (human, UniProt P10747 19-220); test: flow cytometry on Jurkat cells, reference bsAb
T1 construct: whole, on cells; also called huCD28

Binder | binding result
B1 | binds

target: T1, human CD28; test: worded affinity grade in the in vivo example; no assay named there

Binder | binding result
B2 | binds
B3 | binds
B4 | binds

target: T1, human CD28; test: flow cytometry on Jurkat cells

Binder | binding result
B5 | binds
B6 | binds
B7 | binds
B8 | binds
B9 | binds
B10 | binds
B11 | binds
B12 | binds
